{"source": "paper PMC10397247", "experiment_in_all_cases": "two-hybrid library CCNG1;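 further: natural log of median RNA to DNA barcode read ratio; higher means stronger binding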", "key": {"[1]": {"target": "T1, O3-bH", "T1 chain": "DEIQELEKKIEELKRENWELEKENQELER"}, "[2]": {"target": "T2, O9-bH", "T2 chain": "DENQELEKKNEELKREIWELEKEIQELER", "conditions": "mean of both orientations"}, "[3]": {"target": "T3, O13-bH", "T3 chain": "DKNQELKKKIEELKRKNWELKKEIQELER"}, "[4]": {"target": "T4, O12-bH", "T4 chain": "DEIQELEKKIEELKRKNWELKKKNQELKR"}, "[5]": {"target": "T5, O8-bH", "T5 chain": "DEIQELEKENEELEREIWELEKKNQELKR"}, "[6]": {"target": "T6, O15-bH", "T6 chain": "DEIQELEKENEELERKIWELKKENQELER"}, "[7]": {"target": "T7, O10-bH", "T7 chain": "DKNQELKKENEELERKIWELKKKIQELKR", "conditions": "mean of both orientations"}, "[8]": {"target": "T8, O2-bH", "T8 chain": "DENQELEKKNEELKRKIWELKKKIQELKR"}, "[9]": {"target": "T9, O6-bH", "T9 chain": "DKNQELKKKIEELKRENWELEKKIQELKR"}, "[10]": {"target": "T10, O16-bH", "T10 chain": "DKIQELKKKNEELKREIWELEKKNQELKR"}, "[11]": {"target": "T11, O14-bH", "T11 chain": "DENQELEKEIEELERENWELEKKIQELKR"}, "[12]": {"target": "T12, O4-bH", "T12 chain": "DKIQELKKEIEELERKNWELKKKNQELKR"}, "[13]": {"target": "T13, O7-bH", "T13 chain": "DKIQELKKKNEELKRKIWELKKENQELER"}, "[14]": {"target": "T14, O11-bH", "T14 chain": "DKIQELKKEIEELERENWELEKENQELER"}, "[15]": {"target": "T15, O5-bH", "T15 chain": "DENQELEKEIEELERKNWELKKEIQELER"}, "[16]": {"target": "T16, 4H331-bN", "T16 chain": "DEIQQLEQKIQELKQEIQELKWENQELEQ"}, "[17]": {"target": "T17, 4H4001-bN", "T17 chain": "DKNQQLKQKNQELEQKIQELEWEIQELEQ"}, "[18]": {"target": "T18, 4H967-bN", "T18 chain": "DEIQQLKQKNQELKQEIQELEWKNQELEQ"}, "[19]": {"target": "T19, 4H687-bN", "T19 chain": "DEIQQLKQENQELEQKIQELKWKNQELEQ"}, "[20]": {"target": "T20, 4H3782-bN", "T20 chain": "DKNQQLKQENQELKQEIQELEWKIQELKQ"}, "[21]": {"target": "T21, 4H568-bN", "T21 chain": "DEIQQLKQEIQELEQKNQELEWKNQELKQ"}, "[22]": {"target": "T22, 4H1446-bN", "T22 chain": "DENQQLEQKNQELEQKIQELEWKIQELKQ"}, "[23]": {"target": "T23, 4H883-bN", "T23 chain": "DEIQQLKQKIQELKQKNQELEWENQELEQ"}, "[24]": {"target": "T24, 4H797-bN", "T24 chain": "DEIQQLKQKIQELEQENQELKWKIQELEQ"}, "[25]": {"target": "T25, 4H370-bN", "T25 chain": "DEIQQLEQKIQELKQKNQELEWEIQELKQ"}, "[26]": {"target": "T26, 4H607-bN", "T26 chain": "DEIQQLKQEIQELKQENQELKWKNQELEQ"}, "[27]": {"target": "T27, 4H918-bN", "T27 chain": "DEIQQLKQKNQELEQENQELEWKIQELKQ"}, "[28]": {"target": "T28, 4H72-bN", "T28 chain": "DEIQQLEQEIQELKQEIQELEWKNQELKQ"}, "[29]": {"target": "T29, 4H1845-bN", "T29 chain": "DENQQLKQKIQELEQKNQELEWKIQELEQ"}, "[30]": {"target": "T30, 4H953-bN", "T30 chain": "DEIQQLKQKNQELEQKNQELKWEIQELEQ"}, "[31]": {"target": "T31, 4H2162-bA", "T31 chain": "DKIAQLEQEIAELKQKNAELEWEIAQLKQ"}, "[32]": {"target": "T32, 4H2667-bN", "T32 chain": "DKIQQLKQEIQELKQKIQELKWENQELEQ"}, "[33]": {"target": "T33, 4H2576-bN", "T33 chain": "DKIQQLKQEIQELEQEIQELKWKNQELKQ"}, "[34]": {"target": "T34, 4H3606-bN", "T34 chain": "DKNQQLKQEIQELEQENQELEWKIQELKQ"}, "[35]": {"target": "T35, 4H2697-bN", "T35 chain": "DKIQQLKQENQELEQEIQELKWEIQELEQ"}, "[36]": {"target": "T36, 4H3189-bN", "T36 chain": "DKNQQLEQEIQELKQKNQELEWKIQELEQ"}, "[37]": {"target": "T37, 4H1369-bN", "T37 chain": "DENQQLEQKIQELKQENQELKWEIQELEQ"}, "[38]": {"target": "T38, 4H462-bN", "T38 chain": "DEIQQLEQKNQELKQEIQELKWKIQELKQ"}, "[39]": {"target": "T39, 4H2610-bN", "T39 chain": "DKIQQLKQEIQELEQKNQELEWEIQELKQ"}, "[40]": {"target": "T40, 4H3843-bN", "T40 chain": "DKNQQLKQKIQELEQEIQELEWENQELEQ"}}, "data": [{"binder": "DKNQELKKENEELERKIWELKKKIQELKR", "note": "[O10-bH]", "values": [{"measurement": "interaction score", "setting": "[1]", "result": 1.13}, {"measurement": "interaction score", "setting": "[2]", "result": 0.317}, {"measurement": "interaction score", "setting": "[3]", "result": 0.177}, {"measurement": "interaction score", "setting": "[4]", "result": -1.91}, {"measurement": "interaction score", "setting": "[5]", "result": -0.465}, {"measurement": "interaction score", "setting": "[6]", "result": -0.726}, {"measurement": "interaction score", "setting": "[7]", "result": 0.392}, {"measurement": "interaction score", "setting": "[8]", "result": 0.103}, {"measurement": "interaction score", "setting": "[9]", "result": 0.0839}, {"measurement": "interaction score", "setting": "[10]", "result": 0.522}, {"measurement": "interaction score", "setting": "[11]", "result": -1.44}, {"measurement": "interaction score", "setting": "[12]", "result": 0.524}, {"measurement": "interaction score", "setting": "[13]", "result": 0.671}, {"measurement": "interaction score", "setting": "[14]", "result": -0.919}, {"measurement": "interaction score", "setting": "[15]", "result": 0.349}]}, {"binder": "DENQQLEQKIQELKQENQELKWEIQELEQ", "note": "[4H1369-bN]", "values": [{"measurement": "interaction score", "setting": "[16]", "result": -1.16}, {"measurement": "interaction score", "setting": "[17]", "result": -0.815}, {"measurement": "interaction score", "setting": "[18]", "result": -0.997}, {"measurement": "interaction score", "setting": "[19]", "result": -1.7}, {"measurement": "interaction score", "setting": "[20]", "result": -1.06}, {"measurement": "interaction score", "setting": "[21]", "result": -1.26}, {"measurement": "interaction score", "setting": "[22]", "result": -2.34}, {"measurement": "interaction score", "setting": "[23]", "result": -1.19}, {"measurement": "interaction score", "setting": "[24]", "result": -1.65}, {"measurement": "interaction score", "setting": "[25]", "result": -1.79}, {"measurement": "interaction score", "setting": "[26]", "result": -0.655}, {"measurement": "interaction score", "setting": "[27]", "result": -0.868}, {"measurement": "interaction score", "setting": "[28]", "result": -1.26}, {"measurement": "interaction score", "setting": "[29]", "result": -1.4}, {"measurement": "interaction score", "setting": "[30]", "result": -1.2}, {"measurement": "interaction score", "setting": "[31]", "result": -0.463}, {"measurement": "interaction score", "setting": "[32]", "result": -1.23}, {"measurement": "interaction score", "setting": "[33]", "result": -0.023}, {"measurement": "interaction score", "setting": "[34]", "result": 0.215}, {"measurement": "interaction score", "setting": "[35]", "result": -0.852}, {"measurement": "interaction score", "setting": "[36]", "result": -0.697}, {"measurement": "interaction score", "setting": "[37]", "result": -0.802}, {"measurement": "interaction score", "setting": "[38]", "result": -1.07}, {"measurement": "interaction score", "setting": "[39]", "result": -0.97}, {"measurement": "interaction score", "setting": "[40]", "result": -1.02}]}]}
